Reference: publication PMC10635571

Biological target: hnRNPK (human (endogenous in HeLa)) (UniProt P61978)
Assay: native gel or EMSA; blue native PAGE (4-13%) of the lhCLIP sample: HeLa cells UV-crosslinked, lysate immunoprecipitated with anti-hnRNPK, MNase digestion, pCp-biotin labelling, ligation, eluted from beads at 70°C for 10 min without reducing agents; blotted with anti-hnRNPK antibody

hnRNPK, P61978 1-463 (natural protein; other documents disagree on this pair)
stoichiometry N: 2
